# “Also recorded” adds a separate entry of the source. Non-standard residues stand in square brackets, D forms with d. Primed or numbered codes have the meaning given here. No end group written: not given here. PEG5′ = linker of 5 PEG units between residues
# How the values were obtained:
# [1] = test system: mouse J774A.1 macrophages; assay: In vitro phagocytosis assay: opsonized human RBCs engulfed by mouse J774A.1 macrophages; format: cell-based; settings: saturating / 50 μM peptide
# Protocol: In vitro phagocytosis assay. […] For CD47 blocked RBCs, 5 μg/mL of mouse anti-human CD47 (B6H12; BD Biosciences) were added. Thereafter, RBCs were washed with PBS three times and stained with PKH26 dye (1:800 dilution in PBS; Sigma) for 1 hour at RT with shaking in the dark. RBCs were washed and resuspended in PBS. J774A.1 macrophages were plated for 24 hours in RPMI. For SIRPα blocked J774A.1 macrophages, the same peptide blocking procedure as described elsewhere herein was used with the addition of a positive control using 5 μg/mL rat anti-mouse SIRPα ([…]; BD Biosciences). […] CO2 and 95% humidity. Macrophages were then washed with RPMI three times. Adherent and uninternalized RBCs were lysed with water for 30 seconds followed by immediate replacement with RPMI media. In order to distinguish remaining adherent RBCs from internalized RBCs, opsonized RBCs were stained with AlexaFluor 647 donkey anti-rabbit (binds to rabbit polyclonal opsonin on RBC; Invitrogen) IgG (1:1000) while unopsonized, CD47 blocked RBCs were stained with AlexaFluor 647 donkey anti-mouse (binds to mouse monoclonal anti-CD47 on RBCs; Invitrogen) IgG (1:1000) for 30 minutes. After washing, macrophages were fixed with 4% formaldehyde for 15 minutes at RT, washed with PBS, stained with 1 μg/mL Hoechst 33342, and then washed with PBS again. Fluorescence imaging was performed as described elsewhere herein and quantification was done using ImageJ. At least 200 cells were analyzed and experiments were repeated at least three times.
# [2] = test system: A549 (SIRPα positive) cells; assay: Confocal live staining with FAM-labeled peptides, A549 cells; format: binding, human; settings: 100 uM and 1 μM FAM-labeled peptide
# Protocol: SIRPα staining and confocal imaging. THP-1 monocytes were PMA-differentiated in RPMI 1640 for 24 hours. J774A.1, A549, and COS-1 cells were plated for 24 hours in media, respectively. Cells were washed with respective media prior to addition of fluorescent peptides. The peptides were left to incubate for 1 hour at 37 ° C., 5% CO2 and 95% humidity. For fixed cell staining, cells were incubated with 4% formaldehyde (Pierce) for 15 minutes prior to the addition of fluorescent peptides whereas for live cell staining, fixation was done after incubation with the FAM-labeled peptides. Nuclei were stained with 1 μg/mL Hoechst 33342 (Invitrogen). Cells were the washed PBS three times before analysis. Fluorescence imaging of fixed cells was performed using an Olympus IX71 with a digital EMCCD camera (Cascade 512B) and a 40×/0.6 NA objective. […] Quantification was done with ImageJ (NIH).
# In order to visualize the uneven binding of the peptides to the surface of the macrophages, a live staining experiment of THP-1, J774A.1, and A549 cells, which all express SIRPα at different levels, was performed with FAM-labeled nS-wt and nS-X and analyzed by confocal microscopy (FIG. 11). […] Fluorescence of nS-X was consistently lower on THP-1 and J774A.1 macrophages relative to nS-wt. […]
# SIRPα = molecular target: T1, SIRPα (Homo sapiens, UniProt P78324); assay: CD47-Fc Inhibition Assay on THP-1 macrophages; format: binding; settings: 1 μM or 50 μM peptide, 2 μg/mL CD47-Fc, anti-Fc fluorescence
# T1 construct: THP-1 monocytes were PMA differentiated in RPMI for 48 h; endogenous in cells; host or cells: PMA-differentiated THP-1 macrophages
# Protocol: CD47-Fc Inhibition Assay. THP-1 monocytes were PMA differentiated in RPMI for 48 h. The macrophages were washed with RPMI media and then incubated with 1 μM or 50 μM of nano- Self peptides for 1 h at 37° C., 5% CO2, and 95% humidity. After washing, the macrophages were incubated with Human Trustain FcX Fc receptor blocking solution (Biolegend) for 10 min at RT and then incubated with 2 μg/mL CD47-Fc fusion protein (ACRO Biosystems) for 1 h at 37° C., 5% CO2, and 95% humidity. As a negative control, B6H12 was pre-mixed with CD47-Fc at 4° C. on a rotator for 1 h. The macrophages were then washed and incubated with 0.5 μg/mL goat anti-human IgG Fc DyLight 488 (Thermo Fischer) for 1 h at 37° C., 5% CO2, and 95% humidity. Finally, the macrophages were washed, fixed, Hoechst 33342 stained, and imaged as described above.
# To determine whether the nS peptides bind to SIRPα, nS-FF and nS-F4 were used as soluble competitive inhibitors of saturable CD47-Fc fusion protein binding to macrophages (FIG. 20). Addition of multivalent nS peptides was followed by Fc-receptor blockade to minimize Fc-driven binding of construct. Afterwards, CD47-Fc was added and then finally anti-Fc fluorescence imaging was performed (FIG. 20, left).
# [3] = Pre-clinical safety: intravenous nS-FF injections in mice; format: in vivo, mouse
# Protocol: FIGS. 23A-23D illustrate that pre-clinical assessments indicate nS-FF is safe in vivo Phase 1 pre-clinical trial: Intravenous injections of nS-FF were done for four consecutive days followed by blood withdrawal 24 hours after last injection.
# Phase 1 clinical trials for safety of anti-CD47 in patients have shown that infusion into the bloodstream decreases RBC numbers (i.e. hematocrit) and increases reticulocytes (i.e. new RBCs), and related blood safety concerns apply to a bivalent CD47-binding protein made with SIRPα domains fused to a macrophage-binding domain (Fc domain). […] This corresponds to about 8 μM in the blood, assuming rapid mixing and no dilution within the ˜1.5 mL blood volume of the mouse. Withdrawal of ˜140 μL from this blood volume was necessary to obtain a complete hematology profile, and such a volume is expected to cause slight decreases in hematocrit and platelets as shown (FIGS. 23A-23B). Consistent with this loss, more RBCs should be produced in each mouse to compensate for the RBC loss, and the ˜30% increase in reticulocytes after the first two blood draws over 11 days (FIG. 23C) is similar to the prior amount of blood removed (˜300 μl/1500 μl). The mice (˜14 weeks) also continued to gain weight at the same rates (˜5% over 11 days) regardless of peptide injections. These changes are thus expected but, importantly, unaffected by the nSFF peptide, which establishes some safety.
Substance,effect on phagocytosis of opsonized RBCs (words) [1],binding to A549 cells [2],level of inhibition of CD47-Fc binding (SIRPα),"increase in reticulocytes ([3]; after the first two blood draws over 11 days, unaffected by peptide) [%]","safety: mouse hematology and body weight ([3]; four daily tail-vein injections of 1 mg/kg, 1 mg/kg)","body weight gain ([3]; over 11 days, same rates regardless of peptide injections) [%]"
"VTELTREG [nS-wt, 8-amino acid wild type nano-Self peptide from the CD47 loop, C-terminal amide]",matches anti-CD47 blockade effects,binding was observed at 100 uM on A549 cells all around the surface,–,–,–,–
"(VTELFREG-PEG5)2-K (VTELFREG[PEG5′]K[PEG5′]GERFLETV; not fully specified; also: bivalent lysine core) [nS-FF, bivalent nS-F linked through PEG5 linkers to a C-terminal Lys]",–,–,as inhibitory as anti-CD47,~30,"safe, with no anemia or weight loss; also recorded: no differences versus PBS vehicle control",~5
